{
  "source": "patent US20230406885A1",
  "about": "“CYCLIC PEPTIDES FOR TRAPPING INTERLEUKIN-1 BETA” (MERCK SHARP & DOHME LLC, priority 2022, published 2023)",
  "binders": {"B1": {"name": "SEQ ID NO: 27 (peptide)", "peptide": "cyclo([Bip(4'-COOH)]W[Phe(4-COOH)]G[Pro(trans-4-NH2)][1Nal(3S-Me)]D[dNMeA]G[Bip(4'-COOH)][Ala(pyrimidin-5-yl)][Dap][dA][h3Pal(5-CN)])", "SMILES": "C[C@@H]1C(=O)NCC(=O)N[C@@H](Cc2ccc(-c3ccc(C(=O)O)cc3)cc2)C(=O)N[C@@H](Cc2cncnc2)C(=O)N[C@@H](CN)C(=O)N[C@H](C)C(=O)N[C@@H](CCc2cncc(C#N)c2)C(=O)N[C@@H](Cc2ccc(-c3ccc(C(=O)O)cc3)cc2)C(=O)N[C@@H](Cc2c[nH]c3ccccc23)C(=O)N[C@@H](Cc2ccc(C(=O)O)cc2)C(=O)NCC(=O)N2C[C@H](N)C[C@H]2C(=O)N[C@@H]([C@@H](C)c2cccc3ccccc23)C(=O)N[C@@H](CC(=O)O)C(=O)N1C"}, "B2": {"name": "SEQ ID NO: 28 (peptide)", "peptide": "cyclo([Bip(4'-COOH)]W[Phe(4-COOH)]G[Pro(trans-4-NH2)][1Nal(3S-Me)]D[dNMeA]G[Bip(4'-COOH)][Ala(pyrimidin-5-yl)][Dap][dA][hTyr])", "SMILES": "C[C@@H]1C(=O)NCC(=O)N[C@@H](Cc2ccc(-c3ccc(C(=O)O)cc3)cc2)C(=O)N[C@@H](Cc2cncnc2)C(=O)N[C@@H](CN)C(=O)N[C@H](C)C(=O)N[C@@H](CCc2ccc(O)cc2)C(=O)N[C@@H](Cc2ccc(-c3ccc(C(=O)O)cc3)cc2)C(=O)N[C@@H](Cc2c[nH]c3ccccc23)C(=O)N[C@@H](Cc2ccc(C(=O)O)cc2)C(=O)NCC(=O)N2C[C@H](N)C[C@H]2C(=O)N[C@@H]([C@@H](C)c2cccc3ccccc23)C(=O)N[C@@H](CC(=O)O)C(=O)N1C"}, "B3": {"name": "SEQ ID NO: 29 (peptide)", "peptide": "cyclo([Bip(4'-COOH)]W[Phe(4-COOH)]G[Pro(trans-4-NH2)][1Nal(3S-Me)]D[dNMeA]G[Bip(4'-COOH)][Trp(7-aza)][Dap][dA][hTyr])", "SMILES": "C[C@@H]1C(=O)NCC(=O)N[C@@H](Cc2ccc(-c3ccc(C(=O)O)cc3)cc2)C(=O)N[C@@H](Cc2c[nH]c3ncccc23)C(=O)N[C@@H](CN)C(=O)N[C@H](C)C(=O)N[C@@H](CCc2ccc(O)cc2)C(=O)N[C@@H](Cc2ccc(-c3ccc(C(=O)O)cc3)cc2)C(=O)N[C@@H](Cc2c[nH]c3ccccc23)C(=O)N[C@@H](Cc2ccc(C(=O)O)cc2)C(=O)NCC(=O)N2C[C@H](N)C[C@H]2C(=O)N[C@@H]([C@@H](C)c2cccc3ccccc23)C(=O)N[C@@H](CC(=O)O)C(=O)N1C"}, "B4": {"name": "SEQ ID NO: 3 (peptide)", "peptide": "cyclo([3AzaPhe4AcPip]W[Phe(4-COOH)]G[Pro(trans-4-NH2)][1Nal(3S-Me)]D[dNMeA]G[Bip(4'-COOH)]KL[dA][hTyr])", "SMILES": "CC(=O)N1CCN(c2ccc(C[C@@H]3NC(=O)[C@H](CCc4ccc(O)cc4)NC(=O)[C@@H](C)NC(=O)[C@H](CC(C)C)NC(=O)[C@H](CCCCN)NC(=O)[C@H](Cc4ccc(-c5ccc(C(=O)O)cc5)cc4)NC(=O)CNC(=O)[C@@H](C)N(C)C(=O)[C@H](CC(=O)O)NC(=O)[C@H]([C@@H](C)c4cccc5ccccc45)NC(=O)[C@@H]4C[C@@H](N)CN4C(=O)CNC(=O)[C@H](Cc4ccc(C(=O)O)cc4)NC(=O)[C@H](Cc4c[nH]c5ccccc45)NC3=O)cn2)CC1"}, "B5": {"name": "SEQ ID NO: 30 (peptide)", "peptide": "cyclo([Bip(4'-COOH)]W[Phe(4-COOH)]G[Pro(trans-4-NH2)][1Nal(3S-Me)]D[dNMeA]G[Bip(4'-COOH)]W[Dap][dA][h3Pal(5-CN)])", "SMILES": "C[C@@H]1C(=O)NCC(=O)N[C@@H](Cc2ccc(-c3ccc(C(=O)O)cc3)cc2)C(=O)N[C@@H](Cc2c[nH]c3ccccc23)C(=O)N[C@@H](CN)C(=O)N[C@H](C)C(=O)N[C@@H](CCc2cncc(C#N)c2)C(=O)N[C@@H](Cc2ccc(-c3ccc(C(=O)O)cc3)cc2)C(=O)N[C@@H](Cc2c[nH]c3ccccc23)C(=O)N[C@@H](Cc2ccc(C(=O)O)cc2)C(=O)NCC(=O)N2C[C@H](N)C[C@H]2C(=O)N[C@@H]([C@@H](C)c2cccc3ccccc23)C(=O)N[C@@H](CC(=O)O)C(=O)N1C"}, "B6": {"name": "SEQ ID NO: 31 (peptide)", "peptide": "cyclo([Bip(4'-COOH)]W[Phe(4-COOH)]G[Pro(trans-4-NH2)][1Nal(3S-Me)]D[dNMeA]G[Bip(4'-COOH)]W[Dap][dA][hTyr])", "SMILES": "C[C@@H]1C(=O)NCC(=O)N[C@@H](Cc2ccc(-c3ccc(C(=O)O)cc3)cc2)C(=O)N[C@@H](Cc2c[nH]c3ccccc23)C(=O)N[C@@H](CN)C(=O)N[C@H](C)C(=O)N[C@@H](CCc2ccc(O)cc2)C(=O)N[C@@H](Cc2ccc(-c3ccc(C(=O)O)cc3)cc2)C(=O)N[C@@H](Cc2c[nH]c3ccccc23)C(=O)N[C@@H](Cc2ccc(C(=O)O)cc2)C(=O)NCC(=O)N2C[C@H](N)C[C@H]2C(=O)N[C@@H]([C@@H](C)c2cccc3ccccc23)C(=O)N[C@@H](CC(=O)O)C(=O)N1C"}, "B7": {"name": "SEQ ID NO: 32 (peptide)", "peptide": "cyclo([Bip(4'-COOH)]W[Phe(4-COOH)]G[Pro(trans-4-NH2)][1Nal(3S-Me)]D[dNMeA]G[Bip(4'-COOH)]WG[dDab][hTyr])", "SMILES": "C[C@@H]1C(=O)NCC(=O)N[C@@H](Cc2ccc(-c3ccc(C(=O)O)cc3)cc2)C(=O)N[C@@H](Cc2c[nH]c3ccccc23)C(=O)NCC(=O)N[C@H](CCN)C(=O)N[C@@H](CCc2ccc(O)cc2)C(=O)N[C@@H](Cc2ccc(-c3ccc(C(=O)O)cc3)cc2)C(=O)N[C@@H](Cc2c[nH]c3ccccc23)C(=O)N[C@@H](Cc2ccc(C(=O)O)cc2)C(=O)NCC(=O)N2C[C@H](N)C[C@H]2C(=O)N[C@@H]([C@@H](C)c2cccc3ccccc23)C(=O)N[C@@H](CC(=O)O)C(=O)N1C"}, "B8": {"name": "SEQ ID NO: 33 (peptide)", "peptide": "cyclo([Bip(4'-COOH)]W[Phe(4-COOH)]G[Pro(trans-4-NH2)][Trp(4-Cl)(βS-Me)]A[dNMeA]G[Bip(4'-COOH)][1Nal]L[Aib]G)", "SMILES": "CC(C)C[C@@H]1NC(=O)[C@H](Cc2cccc3ccccc23)NC(=O)[C@H](Cc2ccc(-c3ccc(C(=O)O)cc3)cc2)NC(=O)CNC(=O)[C@@H](C)N(C)C(=O)[C@H](C)NC(=O)[C@H]([C@@H](C)c2c[nH]c3cccc(Cl)c23)NC(=O)[C@@H]2C[C@@H](N)CN2C(=O)CNC(=O)[C@H](Cc2ccc(C(=O)O)cc2)NC(=O)[C@H](Cc2c[nH]c3ccccc23)NC(=O)[C@H](Cc2ccc(-c3ccc(C(=O)O)cc3)cc2)NC(=O)CNC(=O)C(C)(C)NC1=O"}, "B9": {"name": "SEQ ID NO: 34 (peptide)", "peptide": "cyclo([Bip(4'-COOH)]W[Phe(4-COOH)]G[Pro(trans-4-NH2)][Trp(4-Cl)(βS-Me)]D[dNMeA]G[Bip(4'-COOH)][1Nal][Dap][Aib][h3Pal(5-CN)])", "SMILES": "C[C@@H]1C(=O)NCC(=O)N[C@@H](Cc2ccc(-c3ccc(C(=O)O)cc3)cc2)C(=O)N[C@@H](Cc2cccc3ccccc23)C(=O)N[C@@H](CN)C(=O)NC(C)(C)C(=O)N[C@@H](CCc2cncc(C#N)c2)C(=O)N[C@@H](Cc2ccc(-c3ccc(C(=O)O)cc3)cc2)C(=O)N[C@@H](Cc2c[nH]c3ccccc23)C(=O)N[C@@H](Cc2ccc(C(=O)O)cc2)C(=O)NCC(=O)N2C[C@H](N)C[C@H]2C(=O)N[C@@H]([C@@H](C)c2c[nH]c3cccc(Cl)c23)C(=O)N[C@@H](CC(=O)O)C(=O)N1C"}, "B10": {"name": "SEQ ID NO: 35 (peptide)", "peptide": "cyclo([Bip(4'-COOH)]W[Phe(4-COOH)]G[Pro(trans-4-NH2)][Trp(4-Cl)(βS-Me)]D[dNMeA]G[Bip(4'-COOH)][1Nal]L[Aib]G)", "SMILES": "CC(C)C[C@@H]1NC(=O)[C@H](Cc2cccc3ccccc23)NC(=O)[C@H](Cc2ccc(-c3ccc(C(=O)O)cc3)cc2)NC(=O)CNC(=O)[C@@H](C)N(C)C(=O)[C@H](CC(=O)O)NC(=O)[C@H]([C@@H](C)c2c[nH]c3cccc(Cl)c23)NC(=O)[C@@H]2C[C@@H](N)CN2C(=O)CNC(=O)[C@H](Cc2ccc(C(=O)O)cc2)NC(=O)[C@H](Cc2c[nH]c3ccccc23)NC(=O)[C@H](Cc2ccc(-c3ccc(C(=O)O)cc3)cc2)NC(=O)CNC(=O)C(C)(C)NC1=O"}, "B11": {"name": "SEQ ID NO: 36 (peptide)", "peptide": "cyclo([Bip(4'-COOH)]W[Phe(4-COOH)]G[Pro(trans-4-NH2)][Trp(4-Cl)(βS-Me)]D[dNMeA]G[Bip(4'-COOH)][1Nal]L[Aib][hTyr])", "SMILES": "CC(C)C[C@@H]1NC(=O)[C@H](Cc2cccc3ccccc23)NC(=O)[C@H](Cc2ccc(-c3ccc(C(=O)O)cc3)cc2)NC(=O)CNC(=O)[C@@H](C)N(C)C(=O)[C@H](CC(=O)O)NC(=O)[C@H]([C@@H](C)c2c[nH]c3cccc(Cl)c23)NC(=O)[C@@H]2C[C@@H](N)CN2C(=O)CNC(=O)[C@H](Cc2ccc(C(=O)O)cc2)NC(=O)[C@H](Cc2c[nH]c3ccccc23)NC(=O)[C@H](Cc2ccc(-c3ccc(C(=O)O)cc3)cc2)NC(=O)[C@H](CCc2ccc(O)cc2)NC(=O)C(C)(C)NC1=O"}, "B12": {"name": "SEQ ID NO: 37 (peptide)", "peptide": "cyclo([Bip(4'-COOH)]W[Phe(4-COOH)]G[Pro(trans-4-NH2)][Trp(4-Cl)(βS-Me)]D[dNMeA]G[Bip(4'-COOH)][1Nal][Orn][Aib]G)", "SMILES": "C[C@@H]1C(=O)NCC(=O)N[C@@H](Cc2ccc(-c3ccc(C(=O)O)cc3)cc2)C(=O)N[C@@H](Cc2cccc3ccccc23)C(=O)N[C@@H](CCCN)C(=O)NC(C)(C)C(=O)NCC(=O)N[C@@H](Cc2ccc(-c3ccc(C(=O)O)cc3)cc2)C(=O)N[C@@H](Cc2c[nH]c3ccccc23)C(=O)N[C@@H](Cc2ccc(C(=O)O)cc2)C(=O)NCC(=O)N2C[C@H](N)C[C@H]2C(=O)N[C@@H]([C@@H](C)c2c[nH]c3cccc(Cl)c23)C(=O)N[C@@H](CC(=O)O)C(=O)N1C"}},
  "note": "*1 amine or outer side, *2 acyl side, *3 side chain or, on linkers, in order; H or OH if unused. [ ]: non-standard residue; d: D form. 3AzaPhe4AcPip = (S)-3-(6-(4-acetylpiperazin-1-yl)pyridin-3-yl)-2-aminopropanoic acid, CC(=O)N1CCN(c2ccc(C[C@H](N[*:1])C(=O)[*:2])cn2)CC1; Trp(4-Cl)(βS-Me) = C[C@@H](c1c[nH]c2cccc(Cl)c12)[C@H](N)C(=O)O; Pro(trans-4-NH2) = O=C([C@@H]1C[C@@H](N[*:3])CN1[*:1])[*:2]; Bip(4'-COOH) = N[C@@H](Cc1ccc(-c2ccc(C(=O)O)cc2)cc1)C(=O)O; 1Nal(3S-Me) = C[C@@H](c1cccc2ccccc12)[C@H](N)C(=O)O; Ala(pyrimidin-5-yl) = N[C@@H](Cc1cncnc1)C(=O)O; Phe(4-COOH) = N[C@@H](Cc1ccc(C(=O)O)cc1)C(=O)O; Trp(7-aza) = N[C@@H](Cc1c[nH]c2ncccc12)C(=O)O; h3Pal(5-CN) = N#Cc1cncc(CC[C@H](N)C(=O)O)c1; 1Nal = N[C@@H](Cc1cccc2ccccc12)C(=O)O; hTyr = N[C@@H](CCc1ccc(O)cc1)C(=O)O; dDab = NCC[C@@H](N)C(=O)O; Orn = NCCC[C@H](N)C(=O)O; dNMeA = CN[C@H](C)C(=O)O; Dap = NC[C@H](N)C(=O)O; Aib = CC(C)(N)C(=O)O",
  "data": [
    {"biological_target": "Recombinant human IL-1β (BioLegend 579404) (human, UniProt P01584 117-269)", "experiment": "cell-based or functional assay", "units": {"MRC5 IC50": "nM"}, "values": [
      {"binder": "B1", "MRC5 IC50": 0.017},
      {"binder": "B2", "MRC5 IC50": 0.0393},
      {"binder": "B3", "MRC5 IC50": 0.0205},
      {"binder": "B4", "MRC5 IC50": 0.0599},
      {"binder": "B5", "MRC5 IC50": 0.0185},
      {"binder": "B6", "MRC5 IC50": 0.0208},
      {"binder": "B7", "MRC5 IC50": 0.033},
      {"binder": "B8", "MRC5 IC50": 0.544},
      {"binder": "B9", "MRC5 IC50": 0.0755},
      {"binder": "B10", "MRC5 IC50": 0.16},
      {"binder": "B11", "MRC5 IC50": 0.0522},
      {"binder": "B12", "MRC5 IC50": 0.103}
    ]}
  ]
}
